The record followed here is patent US20230235052A1 (GRACELL BIOTECHNOLOGIES SHANGHAI, published 2023).

To fix the notation:
T1: human CD19 antigen (human, UniProt P15391 20-291, limits assumed)
T1 sequence (looked up): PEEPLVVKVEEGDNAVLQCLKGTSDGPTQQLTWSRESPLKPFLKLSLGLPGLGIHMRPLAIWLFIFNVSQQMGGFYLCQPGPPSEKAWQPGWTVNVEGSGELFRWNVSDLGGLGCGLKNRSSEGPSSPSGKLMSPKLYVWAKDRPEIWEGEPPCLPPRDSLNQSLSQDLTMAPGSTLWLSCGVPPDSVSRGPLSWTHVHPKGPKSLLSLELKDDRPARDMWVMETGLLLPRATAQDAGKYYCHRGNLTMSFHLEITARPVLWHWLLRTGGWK

T2: CD19 on CD19-positive target cells SU-DHL-10 and Raji (human, UniProt P15391 20-556)
T2 construct: whole, on cells; also called cell surface antigens
T2 sequence (looked up): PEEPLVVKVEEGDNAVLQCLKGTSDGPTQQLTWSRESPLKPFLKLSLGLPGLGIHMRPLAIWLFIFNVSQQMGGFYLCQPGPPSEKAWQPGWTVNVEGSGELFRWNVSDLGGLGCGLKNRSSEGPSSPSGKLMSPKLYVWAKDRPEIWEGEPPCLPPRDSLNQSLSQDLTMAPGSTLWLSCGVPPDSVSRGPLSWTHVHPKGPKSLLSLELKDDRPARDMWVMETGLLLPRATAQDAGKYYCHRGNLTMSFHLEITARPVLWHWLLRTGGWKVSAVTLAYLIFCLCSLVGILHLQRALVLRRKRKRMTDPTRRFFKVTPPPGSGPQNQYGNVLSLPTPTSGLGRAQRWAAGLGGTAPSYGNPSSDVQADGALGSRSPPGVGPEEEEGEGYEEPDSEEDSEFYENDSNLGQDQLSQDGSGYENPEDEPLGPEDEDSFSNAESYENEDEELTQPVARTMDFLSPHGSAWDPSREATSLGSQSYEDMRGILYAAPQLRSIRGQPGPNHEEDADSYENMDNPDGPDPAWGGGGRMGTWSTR

B1: humanized CD19 antibody VH3 + VL2 (antibody, V domains shown)
VH: QVQLQESGPGLVKPSQTLSLTCTVSGVSLPDYGVSWIRQPPGKGLEWIGVIWGSETTYYNSALKSRLTISKDTSKNQVSLKLSSVTAADTAVYYCAKHYYYGGSYAMDYWGQGTTVTVSS
VL: DIQMTQSPSSLSASVGDRVTITCRASQDISKYLNWYQQKPGKAPKLLIYHTSRLHSGVPSRFSGSGSGTDYTFTISSLQPEDIATYYCQQGNTLPYTFGGGTKLEIK
notes: also called Antibody No. 8
B2: humanized CD19 antibody VH3 + VL1 (antibody, V domains shown)
VH: B1 VH
VL: B1 VL with Y71F
notes: also called Antibody No. 7
B3: humanized CD19 antibody VH5 + VL2 (antibody, V domains shown)
VH: B1 VH with L20V, I48L, V85L
VL: B1 VL
notes: also called Antibody No. 14
B4: humanized CD19 antibody VH4 + VL2 (antibody, V domains shown)
VH: B1 VH with I48L
VL: B1 VL
notes: also called Antibody No. 11
B5: humanized CD19 antibody VH3 + VL3 (antibody, V domains shown)
VH: B1 VH
VL: B1 VL with F73L
notes: also called Antibody No. 9
B6: humanized CD19 antibody VH5 + VL1 (antibody, V domains shown)
VH: B1 VH with L20V, I48L, V85L
VL: B1 VL with Y71F
notes: also called Antibody No. 13
B7: humanized CD19 antibody VH2 + VL3 (antibody, V domains shown)
VH: B1 VH with L67V
VL: B1 VL with F73L
notes: also called Antibody No. 6
B8: humanized CD19 antibody VH2 + VL2 (antibody, V domains shown)
VH: B1 VH with L67V
VL: B1 VL
notes: also called Antibody No. 5
B9: humanized CD19 antibody VH6 + VL4 (antibody, V domains shown)
VH: B1 VH with L20V, I48L, S61A, V85L
VL: B1 VL with F73L, G91A
notes: also called Antibody No. 16
B10: humanized CD19 antibody VH1 + VL1 (antibody, V domains shown)
VH: B1 VH with L67V, K71V, V78F, K97R
VL: B1 VL with Y71F
notes: also called Antibody No. 1
B11: humanized CD19 antibody VH4 + VL1 (antibody, V domains shown)
VH: B1 VH with I48L
VL: B1 VL with Y71F
notes: also called Antibody No. 10
B12: humanized CD19 antibody VH1 + VL2 (antibody, V domains shown)
VH: B1 VH with L67V, K71V, V78F, K97R
VL: B1 VL
notes: also called Antibody No. 2
B13: humanized CD19 antibody VH5 + VL3 (antibody, V domains shown)
VH: B1 VH with L20V, I48L, V85L
VL: B1 VL with F73L
notes: also called Antibody No. 15
B14: humanized CD19 antibody VH4 + VL3 (antibody, V domains shown)
VH: B1 VH with I48L
VL: B1 VL with F73L
notes: also called Antibody No. 12
B15: humanized CD19 antibody VH2 + VL1 (antibody, V domains shown)
VH: B1 VH with L67V
VL: B1 VL with Y71F
notes: also called Antibody No. 4
B16: humanized CD19 antibody VH1 + VL3 (antibody, V domains shown)
VH: B1 VH with L67V, K71V, V78F, K97R
VL: B1 VL with F73L
notes: also called Antibody No. 3
B17: humanized CD19 antibody VH2 + VL6 (antibody, V domains shown)
VH: B1 VH with L67V
VL: B1 VL with K42G, P44V, Y87F
B18: humanized CD19 antibody VH4 + VL6 (antibody, V domains shown)
VH: B1 VH with I48L
VL: B1 VL with K42G, P44V, Y87F
B19: humanized CD19 antibody VH9 + VL5 (antibody, V domains shown)
VH: B1 VH with Q16E, I48L, N76S, T115L
VL: B1 VL with T22S, Y87F
notes: also called H9L5
B20: humanized CD19 antibody VH2 + VL7 (antibody, V domains shown)
VH: B1 VH with L67V
VL: B1 VL with T22S, G41D, K42G, A43T, P44V, Y71F, Y87F
B21: humanized CD19 antibody VH7 + VL6 (antibody, V domains shown)
VH: B1 VH with Q3K, Q16E, I48L, V78F, T115L
VL: B1 VL with K42G, P44V, Y87F
B22: humanized CD19 antibody VH8 + VL6 (antibody, V domains shown)
VH: B1 VH with Q3K, Q16E, L67V, N76S, S79F, T115L
VL: B1 VL with K42G, P44V, Y87F
B23: humanized CD19 antibody VH8 + VL5 (antibody, V domains shown)
VH: B1 VH with Q3K, Q16E, L67V, N76S, S79F, T115L
VL: B1 VL with T22S, Y87F
B24: humanized CD19 antibody VH10 + VL5 (antibody, V domains shown)
VH: B1 VH with Q3K, Q16E, I48L, N76S, S79F, T115L
VL: B1 VL with T22S, Y87F

Changes are numbered by the printed parent chain.

The target of the first experiment is T1, human CD19 antigen. As to the kind of experiment: SPR (Biacore), antibody captured via Fc. The protocol: Part of the antibodies in Example 1 were tested for affinity, and the composition of the heavy chain variable regions and the light chain variable regions of the antibodies to be tested are shown in Table 1.
(§1) HEK293 cells were used to express the antibodies to be tested and Protein A was used for purification. The surface plasmon resonance technique (SPR) was used for determination, and the Fc capture method was used for antibody fixation.
On the technique in general: Surface plasmon resonance follows binding to a sensor surface in real time, without labels.
B1: the Kd (commonly the concentration at which binding is half-saturated) turned out to be 109 nM and the koff (usually a measure of how fast the partners let go of each other) stood at 0.000638 s⁻¹.
For B2, in that order: 111 nM and 0.000688 s⁻¹.
Taken in the same sequence, the figures for B3 were 14.8 nM and 0.0018 s⁻¹.
For B4, in that order: 89.2 nM and 0.000605 s⁻¹.
Regarding B5, the Kd worked out at 15.8 nM and the koff is 0.00159 s⁻¹.
For B6, in that order: 99.7 nM and 0.000637 s⁻¹.
The molecule B7 came in with a Kd of 44.7 nM and a koff of 0.000395 s⁻¹.
Taken in the same sequence, the figures for B8 were 66.8 nM and 0.000526 s⁻¹.
For B9, in that order: 21000 nM and 0.00493 s⁻¹.
Taken in the same sequence, the figures for B10 were 57.6 nM and 0.00808 s⁻¹.
In turn, B11 showed a Kd of 81 nM and a koff of 0.000584 s⁻¹.
Taken in the same sequence, the figures for B12 were 7.95 nM and 0.00738 s⁻¹.
Molecule B13 returned a Kd of 14.2 nM and a koff of 0.00143 s⁻¹.
For B14, in that order: 56.1 nM and 0.000437 s⁻¹.
Taken in the same sequence, the figures for B15 were 69.8 nM and 0.000568 s⁻¹.
Taken in the same sequence, the figures for B16 were 40.7 nM and 0.0794 s⁻¹.

A further experiment has as its target T1, human CD19 antigen. The experiment can be described thus: SPR (Biacore), antibody captured via Fc. The source holds these as a separate data set. The protocol: Part of the antibodies in Example 1 were tested for affinity, and the composition of the heavy chain variable regions and the light chain variable regions of the antibodies to be tested are shown in Table 2.
as §1
In the case of B17, binding was characterised by a dissociation constant (Kd) of 6.93 nM; the koff turned out to be 0.00124 s⁻¹; the kon (as a rule, the rate constant with which the complex forms) was 179000 M⁻¹ s⁻¹.
With B18, the Kd was determined as 9.31 nM, the koff is 0.00121 s⁻¹ and the kon was determined as 129000 M⁻¹ s⁻¹.
In turn, B19 gave a Kd of 1.7 nM, a koff of 0.000186 s⁻¹ and a kon of 109000 M⁻¹ s⁻¹.
B20: the Kd is 6.39 nM, the koff was 0.00116 s⁻¹ and the kon was determined as 181000 M⁻¹ s⁻¹.
On to B21, for which binding was put at a Kd of 4.57 nM, the koff is 0.000592 s⁻¹ and the kon came out at 130000 M⁻¹ s⁻¹.
For B22, in that order: 3.26 nM, 0.000383 s⁻¹ and 117000 M⁻¹ s⁻¹.
Taken in the same sequence, the figures for B23 were 3.87 nM, 0.000602 s⁻¹ and 155000 M⁻¹ s⁻¹.
Taken in the same sequence, the figures for B24 were 1.55 nM, 0.000182 s⁻¹ and 118000 M⁻¹ s⁻¹.

Another experiment concerns the target T2, CD19 on CD19-positive target cells …. As to the kind of experiment: flow cytometry on CD19-positive Raji cells, antibody titrated, fluorescent anti-Fc secondary antibody, percent positive cells (panel 'scFv binding to Raji'). The protocol:
(§2) Part of the antibodies in Example 1 were detected for surface binding to CD19-positive target cells SU-DHL-10 and Raji.
(§3) CD19-positive SU-DHL-10 or Raji cell lines were used, and humanized antibodies at different concentrations were used to bind the target cells. After binding, secondary antibodies (fluorescent labeled anti-Fc antibodies) were used for staining. After cleaning the residual antibodies, the positive rate was analyzed by flow cytometry to draw the binding curve of antibodies binding to cell surface antigens.
B21: the EC50 (read off the curve) (as a rule, the concentration giving half of the maximal effect) is around 0.03 µg/mL.
For the molecule B22, the “EC50 (read off the curve)” value is around 0.04 µg/mL.
Still for that read-out and setting: under B23 stands around 0.03 µg/mL.
The same measure, in the same setting: under B24 stands around 0.03 µg/mL.

The target is the same in the next experiment. As to the kind of experiment: flow cytometry on CD19-positive SU-DHL-10 cells, antibody titrated, fluorescent anti-Fc secondary antibody, percent positive cells (panel 'scFv binding to SU-DHL-10'). The procedure:
as §2, §3
In general terms: Flow cytometry measures light scatter and fluorescence of single cells or particles in a stream.
Consider B21, for which the “EC50 (read off the curve)” value was around 0.01 µg/mL.
As for B22, the “EC50 (read off the curve)” value is around 0.01 µg/mL.
Same read-out and setting: under B23 stands around 0.01 µg/mL.
